Substitutions are numbered along the chain they refer to. Each block holds one binder with its values, some of them ahead of it.
Assays:
[1] = target: T1, human TF ECD-His (hTF-his) (human, UniProt P13726 33-251); assay: SPR Biacore T200, antibody on Protein A chip, TF-His as analyte, 1:1 model
T1 construct: also called bio-hTF-his; human TF-His protein

[2] = target: T2, cyno TF ECD-His (cTF-his) (monkey (cyno)); assay: as above
T2 construct: also called bio-cTF-his; monkey TF-His protein
T2 chain: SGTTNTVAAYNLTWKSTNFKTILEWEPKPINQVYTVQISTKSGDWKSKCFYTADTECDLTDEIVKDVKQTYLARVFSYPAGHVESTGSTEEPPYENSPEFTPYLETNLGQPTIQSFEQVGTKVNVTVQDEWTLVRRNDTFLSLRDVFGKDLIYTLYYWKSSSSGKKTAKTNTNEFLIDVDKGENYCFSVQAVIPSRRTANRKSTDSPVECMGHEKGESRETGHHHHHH

[3] = target: T3, human tissue factor (TF) on MDA-MB-231, NCI-H358 and HCT116 cells (human, UniProt P13726 33-295); assay: flow cytometry on MDA-MB-231 cells
T3 construct: whole, on cells; also called TF antigen; CD142

Kd [1]: 14.3 nM
koff [1]: 0.000584 s⁻¹
kon [1]: 40800 M⁻¹ s⁻¹
Kd [2]: 10.5 nM
koff [2]: 0.00036 s⁻¹
kon [2]: 34200 M⁻¹ s⁻¹
B5: hu67-7 (antibody, human IgG1, kappa, V domains shown)
VH: EVQLQESGPGLVKPSQTLSLTCTVSGFSLTNYGVNWIRQPPGKGLEWIGVIWSRGNTDYNAAFISRVTISKDTSKNQVSLKLSSVTAADTAVYYCARKDAVVATDALDYWGQGTTVTVSS
VL: DIVMTQSPKSLAVSLGERATINCKASQDVSTAVAWYQQKPGQSPKLLIYSTSYRYTGVPDRFSGSGSGTDFTFTISSLQAEDVAVYYCQQHYSTPYTFGGGTKVEIKR

Kd [1]: 19 nM
koff [1]: 0.000577 s⁻¹
kon [1]: 30400 M⁻¹ s⁻¹
Kd [2]: 10.9 nM
koff [2]: 0.000344 s⁻¹
kon [2]: 31500 M⁻¹ s⁻¹
B7: hu67-13 (antibody, human IgG1, kappa, V domains shown)
VH: EVTLKQSGPVLVKPTQTLTLTCTVSGFSLTNYGVNWIRQPPRKALEWLAVIWSRGNTDYNAAFISRLTISKDTSKSQVVLKMTNMDPVDTATYYCARKDAVVATDALDYWGQGTTVTVSS
VL: DIQMTQSHKFLSASVGDRVTITCKASQDVSTAVAWYQQKPGKSPKLLIYSTSYRYTGVPSRFSGSGSGTDFTFTISSLQPEDIATYYCQQHYSTPYTFGGGTKVEIKR

Kd [1]: 19.1 nM
koff [1]: 0.000638 s⁻¹
kon [1]: 33400 M⁻¹ s⁻¹
Kd [2]: 13.4 nM
koff [2]: 0.000419 s⁻¹
kon [2]: 31200 M⁻¹ s⁻¹
B9: hu67-15 (antibody, human IgG1, kappa, V domains shown)
VH: B5 VH
VL: B7 VL

EC50 [3]: 1.98 nM
B14: hu310-15 (antibody, human IgG1, kappa, V domains shown)
VH: EVQLVQSGAEVKKPGASVKVSCKASGYSFTGYYMNWVRQAPGQGLEWMGEINPSTGGSTYNQKFKARVTLTVDQSTNTAYMELSSLRSEDTAVYYCARRELGGPFGYWGQGTTVTVSS
VL: SIQMTQSPSSLSASVGDRVTITCKASQSVSSGIAWYQQKPGKSPKLLIYFASNRYTGVPSRFSGSGYGTDFTFTISSLQPEDIATYYCQQDYSSPWTFGGGTKVEIKR

EC50 [3]: 1.97 nM
B15: hu310-9 (antibody, human IgG1, kappa, V domains shown)
VH: B14 VH
VL: DIVMTQSPDSLAVSLGERATINCKASQSVSNGIAWYQQKPGQPPKLLIYFASNRYTGVPDRFSGSGSGTDFTLTISSLQAEDVAVYYCQQDYSSPWTFGGGTKVEIKR

EC50 [3]: 1.83 nM
B16: hu310-3 (antibody, human IgG1, kappa, V domains shown)
VH: B14 VH with L70M, N77S, A79V
VL: B15 VL with D1S, D9K, S10F, P43S, S67Y, L73F

EC50 [3]: 2.26 nM
B20: hu310-16 (antibody, human IgG1, kappa, V domains shown)
VH: B14 VH
VL: B14 VL with S31T

EC50 [3]: 1.95 nM
B22: hu310-12 (antibody, human IgG1, kappa, V domains shown)
VH: B14 VH
VL: B14 VL with S1D, S31N, S43A, Y67S

EC50 [3]: 1.39 nM
B23: hu310-13 (antibody, human IgG1, kappa, V domains shown)
VH: B14 VH
VL: B14 VL with S31N

Kd [1]: 21.7 nM
koff [1]: 0.000652 s⁻¹
kon [1]: 30000 M⁻¹ s⁻¹
Kd [2]: 14.3 nM
koff [2]: 0.000428 s⁻¹
kon [2]: 29900 M⁻¹ s⁻¹
B27: hu67-6 (antibody, human IgG1, kappa, V domains shown)
VH: B7 VH with A44G, A49G, T73N
VL: B5 VL

Kd [1]: 15.8 nM
koff [1]: 0.000673 s⁻¹
kon [1]: 42600 M⁻¹ s⁻¹
Kd [2]: 12.7 nM
koff [2]: 0.000429 s⁻¹
kon [2]: 33700 M⁻¹ s⁻¹
B28: hu67-2 (antibody, human IgG1, kappa, V domains shown)
VH: B7 VH with A44G, A49G, T73N
VL: B5 VL with S43P, F73L

Kd [1]: 17.7 nM
koff [1]: 0.000582 s⁻¹
kon [1]: 32800 M⁻¹ s⁻¹
Kd [2]: 15.1 nM
koff [2]: 0.00039 s⁻¹
kon [2]: 25800 M⁻¹ s⁻¹
B29: hu67-5 (antibody, human IgG1, kappa, V domains shown)
VH: B7 VH
VL: B5 VL

The remaining lines, values behind:

B1: hu67-12 (antibody, human IgG1, kappa, V domains shown)
VH: B5 VH with G42R, T73N, N76S
VL: B7 VL with H8P, K9S, F10S, S43A
Kd [1]: 18.7 nM
koff [1]: 0.000731 s⁻¹
kon [1]: 39200 M⁻¹ s⁻¹
Kd [2]: 14 nM
koff [2]: 0.000468 s⁻¹
kon [2]: 33400 M⁻¹ s⁻¹

B2: hu67-9 (antibody, human IgG1, kappa, V domains shown)
VH: B7 VH
VL: B7 VL with H8P, K9S, F10S, S43A
Kd [1]: 16.4 nM
koff [1]: 0.000564 s⁻¹
kon [1]: 34500 M⁻¹ s⁻¹
Kd [2]: 10.8 nM
koff [2]: 0.000351 s⁻¹
kon [2]: 32400 M⁻¹ s⁻¹

B3: hu67-3 (antibody, human IgG1, kappa, V domains shown)
VH: B5 VH
VL: B5 VL with S43P, F73L
Kd [1]: 14.2 nM
koff [1]: 0.000663 s⁻¹
kon [1]: 46600 M⁻¹ s⁻¹
Kd [2]: 13.5 nM
koff [2]: 0.000431 s⁻¹
kon [2]: 31900 M⁻¹ s⁻¹

B4: hu67-10 (antibody, human IgG1, kappa, V domains shown)
VH: B7 VH with A44G, A49G, T73N
VL: B7 VL with H8P, K9S, F10S, S43A
Kd [1]: 15.2 nM
koff [1]: 0.000594 s⁻¹
kon [1]: 39200 M⁻¹ s⁻¹
Kd [2]: 8.9 nM
koff [2]: 0.000356 s⁻¹
kon [2]: 40000 M⁻¹ s⁻¹

B6: hu67-8 (antibody, human IgG1, kappa, V domains shown)
VH: B5 VH with G42R, T73N, N76S
VL: B5 VL
Kd [1]: 17.1 nM
koff [1]: 0.000668 s⁻¹
kon [1]: 39000 M⁻¹ s⁻¹
Kd [2]: 13.7 nM
koff [2]: 0.000446 s⁻¹
kon [2]: 32500 M⁻¹ s⁻¹

B8: hu67-16 (antibody, human IgG1, kappa, V domains shown)
VH: B5 VH with G42R, T73N, N76S
VL: B7 VL
Kd [1]: 19.2 nM
koff [1]: 0.000702 s⁻¹
kon [1]: 36500 M⁻¹ s⁻¹
Kd [2]: 14.8 nM
koff [2]: 0.000478 s⁻¹
kon [2]: 32200 M⁻¹ s⁻¹

B10: hu10H10-1 (antibody, V domains shown)
VH: EVQLVQSGAEVKKPGASVKVSCKASGYTFITYWIEWVRQRPGQGLEWMGDILPGSGSTNYNENFKGRVTFTADTSTSTVYMQLSSLRSEDTAVYYCARSGYYGNSGFAYWGQGTLVTVSS
VL: DIQMTQSPSSLSASVGDRVTITCKSSQSLLSSGNQKNYLTWYQQKPGKAPKLLIYWASTRESGVPSRFSGSGSGTDFTLTISSLQPEDFATYYCQNDYTYPLTFGQGTKLEIK
notes: H1+L1; Full-length IgG
EC50 [3]: 2.05 nM

B11: hu10H10-19 (antibody, V domains shown)
VH: B10 VH
VL: B10 VL with T103S
notes: H1+L4; Full-length IgG
EC50 [3]: 2.35 nM

B12: hu310-10 (antibody, human IgG1, kappa, V domains shown)
VH: B14 VH
VL: B15 VL with D1S, P43S, S67Y
EC50 [3]: 1.33 nM

B13: hu310-5 (antibody, human IgG1, kappa, V domains shown)
VH: B14 VH with L70M, N77S, A79V
VL: B14 VL with S31N
EC50 [3]: 1.55 nM

B17: hu310-4 (antibody, human IgG1, kappa, V domains shown)
VH: B14 VH with L70M, N77S, A79V
VL: B14 VL with S1D, S31N, S43A, Y67S
EC50 [3]: 2.11 nM

B18: hu310-14 (antibody, human IgG1, kappa, V domains shown)
VH: B14 VH
VL: B14 VL with S31Q
EC50 [3]: 1.76 nM

B19: hu310-8 (antibody, human IgG1, kappa, V domains shown)
VH: B14 VH with L70M, N77S, A79V
VL: B14 VL with S31T
EC50 [3]: 1.73 nM

B21: hu310-11 (antibody, human IgG1, kappa, V domains shown)
VH: B14 VH
VL: B15 VL with D1S, D9K, S10F, P43S, S67Y, L73F
EC50 [3]: 1.76 nM

B24: hu310-7 (antibody, human IgG1, kappa, V domains shown)
VH: B14 VH with L70M, N77S, A79V
VL: B14 VL
EC50 [3]: 2.08 nM

B25: hu310-6 (antibody, human IgG1, kappa, V domains shown)
VH: B14 VH with L70M, N77S, A79V
VL: B14 VL with S31Q
EC50 [3]: 2.56 nM

B26: hu67-1 (antibody, human IgG1, kappa, V domains shown)
VH: B7 VH
VL: B5 VL with S43P, F73L
Kd [1]: 13.6 nM
koff [1]: 0.000585 s⁻¹
kon [1]: 42900 M⁻¹ s⁻¹
Kd [2]: 14.8 nM
koff [2]: 0.000358 s⁻¹
kon [2]: 24100 M⁻¹ s⁻¹

Reference: EP4703388A1 (Jiangsu Hengrui Pharmaceuticals Co., Ltd., dated 2024)
